Results: paper PMC2646761

Substrate: CC#CC(=O)C(=O)O
Test: purified protein
Assay type: biochemical, Corynebacterium glutamicum
Conditions: hydration of 2-oxo-3-pentynoate; typical value of the enzyme preparations used

B1: Cg10062 (Corynebacterium glutamicum ATCC 13032) (protein)
chain: PTYTCWSQRIRISREAKQRIAEAITDAHHELAHAPKYLVQVIFNEVEPDSYFIAAQSASENHIWVQATIRSGRTEKQKEELLLRLTQEIALILGIPNEEVWVYITEIPGSNMTEYGRLLMEPGEEEKWFNSLPEGLRERLTELEGSSE
Km: 4.2 ± 0.3 mM | kcat: 0.16 ± 0.01 s⁻¹
